Assay results: patent US20190022211A1 (CELLTRION, published 2019)
Several values for one entry are separate records, joined by “and”; a condition that tells them apart may be missing. Identical values can stand only once.

Assays:
Experiment in all cases: cell-based or functional assay
[1] = target: G protein of rabies virus TX SK 4384 (Skunk, Texas, USA), on virus (rabies virus)
[2] = target: G protein of rabies virus Bat Ef (Bat, Pennsylvania, USA), on virus (rabies virus)
[3] = target: G protein of rabies virus CASK (Skunk, California, USA), on virus (rabies virus)
[4] = target: G protein of rabies virus China dog 2005 (Dog, China), on virus (rabies virus)
[5] = target: G protein of EBLV 1 A09-3484 (Genotype 5), on virus (EBLV 1, Genotype 5)
[6] = target: T1, G protein of rabies virus CVS-11 strain (on virus) (rabies virus CVS-11 strain, UniProt O92284 20-524)
T1 sequence: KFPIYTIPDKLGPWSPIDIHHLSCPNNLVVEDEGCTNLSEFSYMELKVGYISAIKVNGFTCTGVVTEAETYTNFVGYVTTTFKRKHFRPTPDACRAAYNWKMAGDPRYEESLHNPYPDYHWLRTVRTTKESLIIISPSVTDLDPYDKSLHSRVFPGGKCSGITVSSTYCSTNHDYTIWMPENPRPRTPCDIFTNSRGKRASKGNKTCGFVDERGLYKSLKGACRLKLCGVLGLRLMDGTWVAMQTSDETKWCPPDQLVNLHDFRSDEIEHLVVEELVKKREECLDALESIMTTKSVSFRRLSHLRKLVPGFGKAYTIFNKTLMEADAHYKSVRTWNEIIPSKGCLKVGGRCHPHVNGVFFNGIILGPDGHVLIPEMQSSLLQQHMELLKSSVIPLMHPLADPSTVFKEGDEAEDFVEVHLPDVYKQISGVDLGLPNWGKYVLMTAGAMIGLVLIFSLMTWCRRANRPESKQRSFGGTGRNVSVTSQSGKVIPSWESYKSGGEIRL

[7] = target: G protein of rabies virus Dog Tun (Dog, Tunisia), on virus (rabies virus)
[8] = target: G protein of rabies virus TX Coyote (Coyote, Texas, USA), on virus (rabies virus)
[9] = target: G protein of Wu ABLV (Australian bat lyssa, Genotype 7), on virus (Australian bat lyssa, Genotype 7)
[10] = target: G protein of rabies virus RAC (Raccoon, Georgia, USA), on virus (rabies virus)
[11] = target: G protein of rabies virus TX SK 4380 (Skunk, Texas, USA), on virus (rabies virus)
[12] = target: G protein of rabies virus Gabon dog (Dog, Gabon), on virus (rabies virus)
[13] = target: G protein of rabies virus 3860 CA Bat (Bat, California, USA), on virus (rabies virus)
[14] = target: G protein of Duvenhage (Genotype 4), on virus (Duvenhage, Genotype 4)
[15] = target: G protein of rabies virus phi dog (Human/dog, Philippines), on virus (rabies virus)
[16] = target: G protein of rabies virus DR MX (Bat, Mexico), on virus (rabies virus)
[17] = target: G protein of rabies virus VA 399 (Bat, Virginia, USA), on virus (rabies virus)
[18] = target: G protein of EBLV 2 A09-3483 (Genotype 6), on virus (EBLV 2, Genotype 6)
[19] = target: G protein of rabies virus 857r (Raccoon dog, Russia, Far East), on virus (rabies virus)

B1: antibody 2 (antibody, V domains shown)
VH: EVQLVESGAEVKKPGASVKVSCKASGYTFTSYDISWVRQAPGQGLEWMGWISTYKGNTNFAQKFQDRVTLTTDTSTTTAYMELRSLTSDDTAVYYCARAKSHPFYDFWSAYYVPGAFDIWGQGTVVTVSS
VL: not shown
- neutralizing activity (RFFIT) [1]: 3570 IU/mg and 0.71 IU/mL
- neutralizing activity (RFFIT), Titer [1]: 250
- neutralizing activity (RFFIT) [2]: 1.05 IU/mL and 5260 IU/mg
- neutralizing activity (RFFIT), Titer [2]: 50
- neutralizing activity (RFFIT) [3]: 0.43 IU/mL and 2160 IU/mg
- neutralizing activity (RFFIT), Titer [3]: 54
- neutralizing activity (RFFIT) [4]: 0.46 IU/mL and 2320 IU/mg
- neutralizing activity (RFFIT), Titer [4]: 13
- neutralizing activity (RFFIT) [5]: 5.4 IU/mL and 27000 IU/mg
- neutralizing activity (RFFIT), Titer [5]: 540
- neutralizing activity (RFFIT) [6]: 1.47 IU/mL and 7350 IU/mg
- neutralizing activity (RFFIT), Titer [6]: 250
- neutralizing activity (RFFIT) [7]: 2.7 IU/mL and 2700 IU/mg
- neutralizing activity (RFFIT), Titer [7]: 270
- neutralizing activity (RFFIT) [8]: 1 IU/mL and 5000 IU/mg
- neutralizing activity (RFFIT), Titer [8]: 170
- neutralizing activity (RFFIT) [9]: 0.68 IU/mL and 3380 IU/mg
- neutralizing activity (RFFIT), Titer [9]: 440
- neutralizing activity (RFFIT) [10]: 1.07 IU/mL and 5370 IU/mg
- neutralizing activity (RFFIT), Titer [10]: 145
- neutralizing activity (RFFIT) [11]: 0.56 IU/mL and 2800 IU/mg
- neutralizing activity (RFFIT), Titer [11]: 70
- neutralizing activity (RFFIT) [12]: 1.06 IU/mL and 5310 IU/mg
- neutralizing activity (RFFIT), Titer [12]: 170
- neutralizing activity (RFFIT) [13]: 1.5 IU/mL and 7500 IU/mg
- neutralizing activity (RFFIT), Titer [13]: 210
- neutralizing activity (RFFIT) [14]: 7.2 IU/mL and 36000 IU/mg
- neutralizing activity (RFFIT), Titer [14]: 180
- neutralizing activity (RFFIT) [15]: 1.04 IU/mL and 5180 IU/mg
- neutralizing activity (RFFIT), Titer [15]: 280
- neutralizing activity (RFFIT) [16]: 1.7 IU/mL and 1710 IU/mg
- neutralizing activity (RFFIT), Titer [16]: 180
- neutralizing activity (RFFIT) [17]: 2.78 IU/mL and 13900 IU/mg
- neutralizing activity (RFFIT), Titer [17]: 50
- neutralizing activity (RFFIT) [18]: 5.56 IU/mL and 27800 IU/mg
- neutralizing activity (RFFIT), Titer [18]: 125
- neutralizing activity (RFFIT) [19]: 2.7 IU/mL and 2700 IU/mg
- neutralizing activity (RFFIT), Titer [19]: 54

B2: antibody 1 (antibody, V domains shown)
VH: VQLLQESGPGLAKPSETLSLICTVSGGSISRRRDYWGWIRQPPGRGLEWIGSFFHRGSTYYNPSLESRVSISVDPSKNQFSLHLSSVTVADTAVYYCARHPSTPFAEYLLLPDAFDSWGQGTLVTVSS
VL: DIVMTQSPATLSVSPGERATLSCRASQSVRSSLAWYQQRPGQAPRLLISGASTRATDIPARLSGSGSGTEFTLTVSSLQSEDFAVYYCQQYSDWPLTFGGGTKVEIKR
- neutralizing activity (RFFIT) [1]: 1070 IU/mg and 0.21 IU/mL
- neutralizing activity (RFFIT), Titer [1]: 75
- neutralizing activity (RFFIT) [2]: 1.05 IU/mL and 5260 IU/mg
- neutralizing activity (RFFIT), Titer [2]: 50
- neutralizing activity (RFFIT) [3]: 0.4 IU/mL and 2000 IU/mg
- neutralizing activity (RFFIT), Titer [3]: 50
- neutralizing activity (RFFIT) [4]: 0.43 IU/mL and 2140 IU/mg
- neutralizing activity (RFFIT), Titer [4]: 12
- neutralizing activity (RFFIT) [5]: 0.56 IU/mL and 2800 IU/mg
- neutralizing activity (RFFIT), Titer [5]: 56
- neutralizing activity (RFFIT) [6]: 0.41 IU/mL and 2060 IU/mg
- neutralizing activity (RFFIT), Titer [6]: 70
- neutralizing activity (RFFIT) [7]: 2.3 IU/mL and 2300 IU/mg
- neutralizing activity (RFFIT), Titer [7]: 230
- neutralizing activity (RFFIT) [8]: 0.33 IU/mL and 1650 IU/mg
- neutralizing activity (RFFIT), Titer [8]: 56
- neutralizing activity (RFFIT) [9]: 0.38 IU/mL and 1920 IU/mg
- neutralizing activity (RFFIT), Titer [9]: 250
- neutralizing activity (RFFIT) [10]: 0.7 IU/mL and 3520 IU/mg
- neutralizing activity (RFFIT), Titer [10]: 95
- neutralizing activity (RFFIT) [11]: 0.4 IU/mL and 2000 IU/mg
- neutralizing activity (RFFIT), Titer [11]: 50
- neutralizing activity (RFFIT) [12]: 0.41 IU/mL and 2030 IU/mg
- neutralizing activity (RFFIT), Titer [12]: 65
- neutralizing activity (RFFIT) [13]: 0.4 IU/mL and 2000 IU/mg
- neutralizing activity (RFFIT), Titer [13]: 56
- neutralizing activity (RFFIT) [14]: 0.44 IU/mL and 2200 IU/mg
- neutralizing activity (RFFIT), Titer [14]: 13
- neutralizing activity (RFFIT) [15]: 0.28 IU/mL and 1390 IU/mg
- neutralizing activity (RFFIT), Titer [15]: 75
- neutralizing activity (RFFIT) [16]: 2.4 IU/mL and 2380 IU/mg
- neutralizing activity (RFFIT), Titer [16]: 250
- neutralizing activity (RFFIT) [17]: 0.56 IU/mL and 2780 IU/mg
- neutralizing activity (RFFIT), Titer [17]: 10
- neutralizing activity (RFFIT) [18]: 2.22 IU/mL and 11100 IU/mg
- neutralizing activity (RFFIT), Titer [18]: 50
- neutralizing activity (RFFIT) [19]: 2.8 IU/mL and 2800 IU/mg
- neutralizing activity (RFFIT), Titer [19]: 56
